Here are results for 21 variants from the RNAGym collection of RNA variant scans (doi:10.1073/pnas.2313332121).

B1: TPR t1 (parent)
chain: GACCAAUCUGCCCUCAGAGCUCGAGAACAUCUUCGGAUGCAGAGGAGGCAGGCUUCGGUGGCGCGAUAGCGCCAACGUCCUCAACCUCCAAUGCAUCCCACCACAUGAUGAUGCCUGAAGAGCCUUGGUUUUUUG

The variants in the data set derive from B1. Put plainly: polymerase ribozyme fitness, log enrichment relative to wild type (log ratio); higher = more active; in vitro selection for triplet polymerase activity. The gist of the method: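 In triplicate, a single round of in vitro selection was run on each mutant library, PCR-built and transcribed, covering one subunit of a heterodimeric triplet polymerase ribozyme. Frozen incubation at −7 °C followed annealing with a biotinylated primer, partner subunit and triplets, and extended constructs were then gel-excised, streptavidin-captured and taken through RT-PCR. Fitness is the logarithm of genotype enrichment over wild-type enrichment, from inverse-variance-weighted replicate averages of Illumina-sequenced inputs and outputs. […] only genotypes with ≥10 input reads and ≥1 read per output were kept.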
For the variant GACCAAUCUGCCCUCAGAGCUCGAGAACAUCUUCGGAUGCAUAGGAGGCAGGCUUUGGUGGCGCGAUAGCGUCAACGUCCUCAAGCUCCAAUGCAUCCCACCACAUGAUUAUGCCUGAAGAGCCUUGGUUUUUUG, the “polymerase ribozyme fitness (log ratio)” value is -5.53.

On to GACCAAUCUGCCCUCAGAGCUCGAGAACAUCUUCGGAUGCAUAGGAGGCAGGCUUGGGUGGCGCGAUAGCGCUAACGUCCUCAACCUCCAAUGCAUCCCACCACAUGAUAAUGCCUGAAGAGCCUUGGUUUUUUG, for which the “polymerase ribozyme fitness (log ratio)” value was -4.56.

Consider GACCAAUCUGCCCUCAGAGCUCGAGAACAUCUUCGGAUGCACAGGAGGCAGGCUUCGGUGGCGCGAUAGCGCCAACGUCCUCAACCUCCAAUGCAUCCCACCACAUGAUGAUGCCUGAAGAGCCUUUGUUUUUUG, for which the “polymerase ribozyme fitness (log ratio)” value was -2.05.

With GACCAAUCUGCCCUCAGAGCUCGAGAACAUCUUCGGAUGCAUAGGAGGCAGGCUUCGGUGGCGCGAUAGCGCCCACGUCCUCAACCUCCAAUGCAUCCCACCACAUGAUGAUGCCUUAAGAGCCUUGGUUUUUUG, the “polymerase ribozyme fitness (log ratio)” value is -4.16.

With GACCAAUCUGCCCUCAGAGCUCGAGAACAUCUUCGGAUGCAUCGGAGGCAGGCUUCGGUAGCGCGAUAGCGCCAACGUCCUCAACCUCAAAUGCAUCCCACCACAUGAUGAUGCCUGAAGAGCCUUGGUUUUUUG, the “polymerase ribozyme fitness (log ratio)” value is -2.03.

In the case of GACCAAUCUGCCCUCAGAGCUCGAGAACAUCUUCGGAUGCAUAGGAGGCAGGUUUCGGUGGUGCGAUAGCGCCAACGUCCUCAACCUCCAAUGCAUCCCACCACAUGAUAAUGCCUGAAGAGCCUUGGUUUUUUG, the “polymerase ribozyme fitness (log ratio)” value was -3.9.

For the variant GACCAAUCUGCCCUCAGAGCUCGAGAACAUCUUCGGAUGCACAGGAGGCAGGCUUCGGUGGCGCGAUAGCGCCAACUUCCUCAACCUCCAAUGCAUCCCACCACAUGAUGAUGCCUGAAGAGCCUUGGUUUUUUG, the “polymerase ribozyme fitness (log ratio)” value was -1.59.

Regarding GACCAAUCUGCCCUCAGAGCUCGAGAACAUCUUCGGAUGCACAGGAGGCAGGCUUCGGUGGCACGAUAGCGCCAACGUCCUCAACCUCCAAUGCAUCCCACCACAUGAUGAUGCCUGAAGAGCCUUGGUUUUUUG, the “polymerase ribozyme fitness (log ratio)” value is -3.47.

Turning to GACCAAUCUGCCCUCAGAGCUCGAGAACAUCUUCGGAUGCAUAGGAGGAAGGCUUCGGUGGCGCGAUAGCGCCAACAUCCUCAACCUCCAAUGCAUCCCACCACAUGAUGAUGCCUGAAGAGGCUUGGUUUUUUU, the “polymerase ribozyme fitness (log ratio)” value is -1.82.

As to GACCAAUCUGCCCUCAGAGCUCGAGAACAUCUUCGGAUGCACAGGAGGCAGGCUUCGGUGGCGCGAUAGCGCCAACGUCCUCAACCUCCAAUGCAUCCCACCACAUGAUGAUGCCUCAAGAGCCUUGGUUUUUUG, the “polymerase ribozyme fitness (log ratio)” value is -4.02.

Consider GACCAAUCUGCCCUCAGAGCUCGAGAACAUCUUCGGAUGCACAGGAGGCAGGCUUCGGUGGCGCGAUACCGCCAACGUCCUCAACAUCCAAUGCAUCCCACCACAUGAUGAUGCCUCAAGAGCCUUGGUUUUUUG, for which the “polymerase ribozyme fitness (log ratio)” value is -6.61.

In the case of GACCAAUCUGCCCUCAGAGCUCGAGAACAUCUUCGGAUGCACAGGAGGCAGGCUUCGGUGGCGCGAUAGCUCCAACGUCCUCAACCUCCAAUGCAUCCCACCACAUGAUGAUGCCUGAAGAGCCUUGGUUUUUUG, the “polymerase ribozyme fitness (log ratio)” value is -2.39.

For the variant GACCAAUCUGCCCUCAGAGCUCGAGAACAUCUUCGGAUGCACAGGAGGCAGGCUUCGGUGGCGCGAUAGCGCCAACGUCCUCAACCUCCAAUGCAUCCCACCACAUGAUGAAGCCUGAAGAGCCUUGGUUUUUUG, the “polymerase ribozyme fitness (log ratio)” value was -0.562.

For GACCAAUCUGCCCUCAGAGCUCGAGAACAUCUUCGGAUGCAUAGGAGGCAGGCUUCGGUGGCGCGAUAGCGCCAACGUCCUCAACCUCCAAUGCGUCCCACCACAUGAUGAUGCCUGAAGAGCCUUGGUUUUUUG, the “polymerase ribozyme fitness (log ratio)” value was -0.388.

Regarding GACCAAUCUGCCCUCAGAGCUCGAGAACAUCUUCGGAUGCAUAGGAGGCAGGUUUCGGUUGCGCGAUAGCGCCAACGUCCUCAACCUCCAAUGCAUCCCACCACAUGAUUAUGCCUGAAGAGCCUUGGUUUUUUG, the “polymerase ribozyme fitness (log ratio)” value is -3.64.

Consider GACCAAUCUGCCCUCAGAGCUCGAGAACAUCUUCGGAUGCACAGGAGGCAGGCUUCGGUGGCGCGAUAGCGCCAACGUCCUCAACCUCCAAUGCAUCCCACCACAUGAUGAUGCCUGAAAAGCCUUGGUUUUUUG, for which the “polymerase ribozyme fitness (log ratio)” value is -1.29.

In the case of GACCAAUCUGCCCUCAGAGCUCGAGAACAUCUUCGGAUGCAUAGGAGGCAGGCUUCGGUGGCGCGAUAGCGCCAACGUCCUCAACCUCCAAUGCAUCCCACCACAUGAUGAUGCCUGAAGAGCCUUGGUUUUUUG, the “polymerase ribozyme fitness (log ratio)” value is -1.31.

GACCAAUCUGCCCUCAGAGCUCGAGAACAUCUUCGGAUGCAUAGGAGGCAGGCUUAGGUGGCGCGAUAGCGCCAACGUCCUCAACCUCCAAUGCAUCCCACCACAUGAUGAUGCCUGAAGAGCCUUGGUUUUUUG: the “polymerase ribozyme fitness (log ratio)” value is -3.39.

Take GACCAAUCUGCCCUCAGAGCUCGAGAACAUCUUCGGAUGCACAGGAGGCAGGCUUCGGUGGCGCGAUAGCGCCAACGUCCUCAACCUCCAAUACAUUCCACCACAUGAUGAUGCUUGAAGAGCCUUGGUUUUUUG: the “polymerase ribozyme fitness (log ratio)” value was -5.15.

With GACCAAUCUGCCCUCAGAGCUCGAGAACAUCUUCGGAUGCAUAGGAGGCAGGCUUCGGUGGCGCGUUAGCGCCAACGUCCUCAACCUCCAAUGCAUCCCACCACAUGAUGAUGCCUGAAGAGCCUUGGUUUUUUG, the “polymerase ribozyme fitness (log ratio)” value is -2.91.

As for GACCAAUCUGCCCUCAGAGCUCGAGAACAUCUUCGGAUGCAUAGGAGGCAGGAUUCGGUGGCGCGAUAGCGCCAACGUCCUCACCUUCCUAUGCAUCCCACCACAUGAUGAUGCCUGAAGAGCCUUGGUUGCUUG, the “polymerase ribozyme fitness (log ratio)” value was -1.34.
